The values below come from the supplement of paper PMC10567573.

B1: MFF (parent)
chain: MAEISRIQYEMEYTEGISQRMRVP
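Further: lentivirally expressed fusions sorted by FACS into six bins by GFP to DsRed ratio, PSI derived from sequencing read proportions per bin multiplied by bin number.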

The data set covers variants of B1. In words: protein stability index of a GFP-peptide fusion (GPS, HEK-293T) (PSI 1-6); higher = more stable. The following applies: c terminus: a fixed tail appended.
With MAEISRIQYEMEYTEGISQLMRVP [R20L], the protein stability index was 2.1.

Take MAEISRIQYEMEYTEGISQGMRVP [R20G]: the protein stability index was 2.14. As to MAEISRIQYEMEYTEGISQNMRVP [R20N], the protein stability index is 2.46. For the variant MAEISRIQYEMEYTEGISQFMRVP [R20F], the protein stability index is 2.08. On to MAEISRIQYEMEYTEGISQKMRVP [R20K], for which the protein stability index amounted to 2.72.

With MAEISRIQYEMEYTEGISQIMRVP [R20I], the protein stability index stood at 2.05. Turning to MAEISRIQYEMEVTEGISQRMRVP [Y13V], the protein stability index was 3.12. For MAEISRIQYEMESTEGISQRMRVP [Y13S], the protein stability index amounted to 3.79. Consider MAEISRIQYEMEFTEGISQRMRVP [Y13F], for which the protein stability index stood at 2.41. Consider MAEISRIQYEMEATEGISQRMRVP [Y13A], for which the protein stability index came to 2.73.

In the case of MAEISRIQYEMELTEGISQRMRVP [Y13L], the protein stability index came out at 2.62. Consider MAEISRIQYEMEETEGISQRMRVP [Y13E], for which the protein stability index is 3.32.

Regarding MAEISRIQYEMEKTEGISQRMRVP [Y13K], the protein stability index turned out to be 2.96. Take MAEISRIQYEMENTEGISQRMRVP [Y13N]: the protein stability index was determined as 3.45. With MEEISRIQYEMEYTEGISQRMRVP [A2E], the protein stability index was 3.33. With MSEISRIQYEMEYTEGISQRMRVP [A2S], the protein stability index stood at 2.5.

Take MDEISRIQYEMEYTEGISQRMRVP [A2D]: the protein stability index stood at 2.83. Regarding MGEISRIQYEMEYTEGISQRMRVP [A2G], the protein stability index was 3.03. With MAEISRIQYEMEYTEGQSQRMRVP [I17Q], the protein stability index is 3.76. For MAEISRIQYEMEYTEGDSQRMRVP [I17D] the value was 3.95; for MAEISRIQYEMEYTEGPSQRMRVP [I17P], 3.57; for MAEISRIQYEMEYTEGYSQRMRVP [I17Y], 2.62. With MAEISRIQYEMEYTEGFSQRMRVP [I17F], the protein stability index is 1.99.

As to MAEISRIQYEMEYTEGRSQRMRVP [I17R], the protein stability index amounted to 3.67.

For MAEISRIQYEMEYTEGHSQRMRVP [I17H], the protein stability index was found to be 3.4. With MAEISRIQYEMEYTEGLSQRMRVP [I17L], the protein stability index is 2.52. Take MAEISRIQYEMEYTEGGSQRMRVP [I17G]: the protein stability index amounted to 3.55. Take MAEISRIQYEYEYTEGISQRMRVP [M11Y]: the protein stability index was 2.67. Regarding MAEISRIQYENEYTEGISQRMRVP [M11N], the protein stability index stood at 3.78.

For MAEISRIQYEFEYTEGISQRMRVP [M11F], the protein stability index was determined as 2.35.

For MAEISRIQYETEYTEGISQRMRVP [M11T], the protein stability index is 3.15. MAEISRIQYEHEYTEGISQRMRVP [M11H]: the protein stability index came to 3.38. For MAEISRIQYESEYTEGISQRMRVP [M11S], the protein stability index was 3.19.

With MAEISRIQYEMEYTEDISQRMRVP [G16D], the protein stability index is 3.02. In the case of MAEISRIQYEMEYTEFISQRMRVP [G16F], the protein stability index came out at 1.82. For MAEISRIQYEMEYTESISQRMRVP [G16S], the protein stability index turned out to be 2.2. Consider MAEISRIQYEMEYTECISQRMRVP [G16C], for which the protein stability index was 2.02. As for MAEISRIQYEMEYTERISQRMRVP [G16R], the protein stability index worked out at 1.9.

For the variant MAEISRIQYEMEYTELISQRMRVP [G16L], the protein stability index came out at 1.9. Consider MAEISRIQYEMEYTEAISQRMRVP [G16A], for which the protein stability index came to 2.69. In the case of MAEISRIQYEMEYTKGISQRMRVP [E15K], the protein stability index was found to be 2.43. MAEISRIQYEMEYTGGISQRMRVP [E15G]: the protein stability index came to 2.15. MAEISRIQYEMEYTIGISQRMRVP [E15I]: the protein stability index stood at 2.11. With MAEISRIQYEMEYTTGISQRMRVP [E15T], the protein stability index amounted to 2.56.

On to MAEISRIQYEMEYTSGISQRMRVP [E15S], for which the protein stability index turned out to be 1.94. In the case of MAEISRIQYEMEYTRGISQRMRVP [E15R], the protein stability index came out at 2.45.

Regarding MAEISRIQYEMEYTQGISQRMRVP [E15Q], the protein stability index was 2.42. The value for MAEISRIQYEMEYTAGISQRMRVP [E15A] was 2.1; that for KAEISRIQYEMEYTEGISQRMRVP [M1K] was 2.97. Regarding FAEISRIQYEMEYTEGISQRMRVP [M1F], the protein stability index stood at 1.97. On to YAEISRIQYEMEYTEGISQRMRVP [M1Y], for which the protein stability index came out at 1.9.

Regarding LAEISRIQYEMEYTEGISQRMRVP [M1L], the protein stability index is 2.55. As for MAEISRIQYEMEYTEGIDQRMRVP [S18D], the protein stability index came out at 2.97.

Regarding MAEISRIQYEMEYTEGITQRMRVP [S18T], the protein stability index came to 2.6. Take MAEISRIQYEMEYTEGIAQRMRVP [S18A]: the protein stability index turned out to be 1.56. As to MAEISRIQYEMEYTEGIEQRMRVP [S18E], the protein stability index is 3.04. For MAEISRIQYEMRYTEGISQRMRVP [E12R] the value was 2.31; for MAEISRIQYEMKYTEGISQRMRVP [E12K], 2.64. With MAEISRIQYEMHYTEGISQRMRVP [E12H], the protein stability index was 2.26.

On to MAEISRIQYEMAYTEGISQRMRVP [E12A], for which the protein stability index was 1.82. For MAEISRIQYEMWYTEGISQRMRVP [E12W] the value was 2.12; for MAEISRIQYEMNYTEGISQRMRVP [E12N], 2.4. On to MAEISRIQYEMLYTEGISQRMRVP [E12L], for which the protein stability index amounted to 1.74.

For the variant MAEISRDQYEMEYTEGISQRMRVP [I7D], the protein stability index is 3.8. Consider MAEISRWQYEMEYTEGISQRMRVP [I7W], for which the protein stability index was found to be 2.02. In the case of MAEISRRQYEMEYTEGISQRMRVP [I7R], the protein stability index amounted to 3.33. For MAEISRMQYEMEYTEGISQRMRVP [I7M] the value was 2.93. Consider MAEISRIQYEMEYTEGISQRQRVP [M21Q], for which the protein stability index turned out to be 3.12. In the case of MAEISRIQYEMEYTEGISQRTRVP [M21T], the protein stability index worked out at 3.33.

With MAEISRIQYEMEYTEGISQRKRVP [M21K], the protein stability index amounted to 3.73. As to MAEISRIQYEMEYTEGISQRLRVP [M21L], the protein stability index amounted to 2.26. With MAEISRIQYEMEYTEGISQRNRVP [M21N], the protein stability index came to 3.32. Take MAEISRIQYEMEYTEGISQRARVP [M21A]: the protein stability index turned out to be 3.17. In the case of MAEISRIQYEMEYTEGISQRIRVP [M21I], the protein stability index worked out at 2.42. Regarding MAEISRIQYEMEYTEGISQRRRVP [M21R], the protein stability index is 3.9.

In the case of MAEISRIQYEMEYTEGISQRYRVP [M21Y], the protein stability index came out at 2.9. For MAEISRIQYEMEYTEGISQRWRVP [M21W] the value was 1.91. As to MAEISRIQYEMEYTEGISQRMRVD [P24D], the protein stability index amounted to 2.7.

Turning to MAEISRIQYEMEYTEGISQRMRVR [P24R], the protein stability index came to 2.87. In the case of MAEISRIQYEMEYTEGISQRMRVA [P24A], the protein stability index stood at 2.16.

MAEISRIQYEMEYTEGISQRMRVG [P24G]: the protein stability index stood at 2.44. In the case of MAEISRIQYEMEYTEGISQRMRVH [P24H], the protein stability index was found to be 2.02.

With MAEISRIQYEMEYTEGISQRMRVS [P24S], the protein stability index is 2.33. The value for MAEISRIQYEMEYTEGISQRMRVW [P24W] was 1.32.

MAEISRIQYEMEYTEGISQRMRVI [P24I]: the protein stability index was 1.91. The value for MASISRIQYEMEYTEGISQRMRVP [E3S] was 1.85. As for MALISRIQYEMEYTEGISQRMRVP [E3L], the protein stability index came out at 1.77. Turning to MAAISRIQYEMEYTEGISQRMRVP [E3A], the protein stability index was 1.85. Regarding MADISRIQYEMEYTEGISQRMRVP [E3D], the protein stability index is 2.58. For the variant MATISRIQYEMEYTEGISQRMRVP [E3T], the protein stability index worked out at 2.07. For MAKISRIQYEMEYTEGISQRMRVP [E3K] the value was 2.3. Turning to MAGISRIQYEMEYTEGISQRMRVP [E3G], the protein stability index turned out to be 2.96. With MAFISRIQYEMEYTEGISQRMRVP [E3F], the protein stability index is 1.76. Turning to MAYISRIQYEMEYTEGISQRMRVP [E3Y], the protein stability index was determined as 2.01.
